Assay results as given in the supplement of paper PMC11316812.
± gives the standard deviation of the averaged measurements.

Tests used:
[1] = test system: MCF7; assay: percentage of EdU-negative (G0-arrested) nuclei per well, 72 h; higher = more G0 arrest; conditions: reference: sequence is the full UniProt precursor, the tested protein was the secreted form or ectodomain
[2] = test system: hTERT-HMEC; assay: as above; conditions: reference: sequence is the full UniProt precursor, the tested protein was the secreted form or ectodomain
[3] = protein concentration 0.0225 µM
[4] = protein concentration 0.02175 µM
[5] = protein concentration 0.2175 µM
[6] = protein concentration 0.0257143 µM
[7] = protein concentration 0.257143 µM
[8] = protein concentration 0.03125 µM
[9] = protein concentration 0.3125 µM
[10] = protein concentration 0.0351429 µM
[11] = protein concentration 0.351429 µM
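Further: secreted proteins added to cultured cells, EdU pulse at the end, nuclei found by Hoechst imaging, EdU status from nuclear versus surrounding ring intensity ratio, PBS as neutral control.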

MLLWVILLVLAPVSGQFARTPRPIIFLQPPWTTVFQGERVTLTCKGFRFYSPQKTKWYHRYLGKEILRETPDNILEVQESGEYRCQAQGSPLSSPVHLDFSSASLILQAPLSVFEGDSVVLRCRAKAEVTLNNTIYKNDNVLAFLNKRTDFHIPHACLKDNGAYRCTGYKESCCPVSSNTVKIQVQEPFTRPVLRASSFQPISGNPVTLTCETQLSLERSDVPLRFRFFRDDQTLGLGWSLSPNFQITAMWSKDSGFYWCKAATMPYSVISDSPRSWIQVQIPASHPVLTLSPEKALNFEGTKVTLHCETQEDSLRTLYRFYHEGVPLRHKSVRCERGASISFSLTTENSGNYYCTADNGLGAKPSKAVSLSVTVPVSHPVLNLSSPEDLIFEGAKVTLHCEAQRGSLPILYQFHHEGAALERRSANSAGGVAISFSLTAEHSGNYYCTADNGFGPQRSKAVSLSVTVPVSHPVLTLSSAEALTFEGATVTLHCEVQRGSPQILYQFYHEDMPLWSSSTPSVGRVSFSFSLTEGHSGNYYCTADNGFGPQRSEVVSLFVTVPVSRPILTLRVPRAQAVVGDLLELHCEAPRGSPPILYWFYHEDVTLGSSSAPSGGEASFNLSLTAEHSGNYSCEANNGLVAQHSDTISLSVIVPVSRPILTFRAPRAQAVVGDLLELHCEALRGSSPILYWFYHEDVTLGKISAPSGGGASFNLSLTTEHSGIYSCEADNGLEAQRSEMVTLKVAVPVSRPVLTLRAPGTHAAVGDLLELHCEALRGSPLILYRFFHEDVTLGNRSSPSGGASLNLSLTAEHSGNYSCEADNGLGAQRSETVTLYITGLTANRSGPFATGVAGGLLSIAGLAAGALLLYCWLSRKAGRKPASDPARSPSDSDSQEPTYHNVPAWEELQPVYTNANPRGENVVYSEVRIIQEKKKHAVASDPRHLRNKGSPIIYSEVKVASTPVSGSLFLASSAPHR [Q96RD9]
percentage of EdU-negative [1, 3]: 26 ± 0.75%
percentage of EdU-negative ([1]; protein concentration 0.225 µM): 31.1 ± 3.2%
percentage of EdU-negative [2, 3]: 4.23 ± 0.27%
percentage of EdU-negative ([2]; protein concentration 0.225 µM): 5.41 ± 0.94%

MLLPLLLLLPMCWAVEVKRPRGVSLTNHHFYDESKPFTCLDGSATIPFDQVNDDYCDCKDGSDEPGTAACPNGSFHCTNTGYKPLYIPSNRVNDGVCDCCDGTDEYNSGVICENTCKEKGRKERESLQQMAEVTREGFRLKKILIEDWKKAREEKQKKLIELQAGKKSLEDQVEMLRTVKEEAEKPEREAKEQHQKLWEEQLAAAKAQQEQELAADAFKELDDDMDGTVSVTELQTHPELDTDGDGALSEAEAQALLSGDTQTDATSFYDRVWAAIRDKYRSEALPTDLPAPSAPDLTEPKEEQPPVPSSPTEEEEEEEEEEEEEAEEEEEEEDSEEAPPPLSPPQPASPAEEDKMPPYDEQTQAFIDAAQEARNKFEEAERSLKDMEESIRNLEQEISFDFGPNGEFAYLYSQCYELTTNEYVYRLCPFKLVSQKPKLGGSPTSLGTWGSWIGPDHDKFSAMKYEQGTGCWQGPNRSTTVRLLCGKETMVTSTTEPSRCEYLMELMTPAACPEPPPEAPTEDDHDEL
percentage of EdU-negative [1, 4]: 27.5 ± 0.87%
percentage of EdU-negative [1, 5]: 24.9 ± 0.62%
percentage of EdU-negative [2, 4]: 5.19 ± 1.2%
percentage of EdU-negative [2, 5]: 5.7 ± 0.68%

MKLSGMFLLLSLALFCFLTGVFSQGGQVDCGEFQDPKVYCTRESNPHCGSDGQTYGNKCAFCKAIVKSGGKISLKHPGKC [Q6UWN8]
percentage of EdU-negative [1, 6]: 24.2 ± 1.2%
percentage of EdU-negative [1, 7]: 27.2 ± 3%
percentage of EdU-negative [2, 6]: 4.92 ± 0.69%
percentage of EdU-negative [2, 7]: 5.15 ± 0.39%

MPGRSCVALVLLAAAVSCAVAQHAPPWTEDCRKSTYPPSGPTYRGAVPWYTINLDLPPYKRWHELMLDKAPVLKVIVNSLKNMINTFVPSGKIMQVVDEKLPGLLGNFPGPFEEEMKGIAAVTDIPLGEIISFNIFYELFTICTSIVAEDKKGHLIHGRNMDFGVFLGWNINNDTWVITEQLKPLTVNLDFQRNNKTVFKASSFAGYVGMLTGFKPGLFSLTLNERFSINGGYLGILEWILGKKDVMWIGFLTRTVLENSTSYEEAKNLLTKTKILAPAYFILGGNQSGEGCVITRDRKESLDVYELDAKQGRWYVVQTNYDRWKHPFFLDDRRTPAKMCLNRTSQENISFETMYDVLSTKPVLNKLTVYTTLIDVTKGQFETYLRDCPDPCIGW
percentage of EdU-negative [1, 3]: 26.7 ± 2.9%
percentage of EdU-negative ([1]; protein concentration 0.225 µM): 26.1 ± 0.96%
percentage of EdU-negative [2, 3]: 4.75 ± 0.61%
percentage of EdU-negative ([2]; protein concentration 0.225 µM): 12.9 ± 1.1%

MAAPSGGWNGVGASLWAALLLGAVALRPAEAVSEPTTVAFDVRPGGVVHSFSHNVGPGDKYTCMFTYASQGGTNEQWQMSLGTSEDHQHFTCTIWRPQGKSYLYFTQFKAEVRGAEIEYAMAYSKAAFERESDVPLKTEEFEVTKTAVAHRPGAFKAELSKLVIVAKASRTEL [Q969H8]
percentage of EdU-negative [1, 8]: 25.7 ± 1.8%
percentage of EdU-negative [1, 9]: 24.42 ± 0.17%
percentage of EdU-negative [2, 8]: 4.64 ± 1%
percentage of EdU-negative [2, 9]: 5.57 ± 0.44%

MRSLLLLSAFCLLEAALAAEVKKPAAAAAPGTAEKLSPKAATLAERSAGLAFSLYQAMAKDQAVENILVSPVVVASSLGLVSLGGKATTASQAKAVLSAEQLRDEEVHAGLGELLRSLSNSTARNVTWKLGSRLYGPSSVSFADDFVRSSKQHYNCEHSKINFRDKRSALQSINEWAAQTTDGKLPEVTKDVERTDGALLVNAMFFKPHWDEKFHHKMVDNRGFMVTRSYTVGVMMMHRTGLYNYYDDEKEKLQIVEMPLAHKLSSLIILMPHHVEPLERLEKLLTKEQLKIWMGKMQKKAVAISLPKGVVEVTHDLQKHLAGLGLTEAIDKNKADLSRMSGKKDLYLASVFHATAFELDTDGNPFDQDIYGREELRSPKLFYADHPFIFLVRDTQSGSLLFIGRLVRPKGDKMRDEL
percentage of EdU-negative [1, 8]: 26.6 ± 2.3%
percentage of EdU-negative [1, 9]: 27.2 ± 1.1%
percentage of EdU-negative [2, 8]: 4.8 ± 0.84%
percentage of EdU-negative [2, 9]: 7.55 ± 1%

MTGDCMPVLVLMAAVLTVTGAVPVARLRGALPDARGCHIAQFKSLSPQELQAFKRAKDALEESLLLKDCKCRSRLFPRTWDLRQLQVRERPVALEAELALTLKVLEATADTDPALGDVLDQPLHTLHHILSQLRACIQPQPTAGPRTRGRLHHWLHRLQEAPKKESPGCLEASVTFNLFRLLTRDLNCVASGDLCV [Q8IZI9]
percentage of EdU-negative [1, 10]: 24 ± 2.3%
percentage of EdU-negative [1, 11]: 28.6 ± 4%
percentage of EdU-negative [2, 10]: 6.75 ± 0.89%
percentage of EdU-negative [2, 11]: 10.9 ± 2.5%
